From US20190264194A1

Experiments:
[1] = target: OmpA with T7⋅tag epitope inserted into loop 1 (Escherichia coli) (UniProt P0A910); assay: flow cytometry of whole cells, biotinylated mAb then streptavidin-phycoerythrin
[2] = target: OmpA with T7⋅tag epitope inserted into loop 4 (Escherichia coli) (UniProt P0A910); assay: as above

fold fluorescence above background control cells [1]: 300 fold
fold fluorescence above background cellular autofluorescence [2]: 2 fold
Substance: anti-T7⋅tag monoclonal antibody
